Patent publication US20250283063, “NOVEL CRISPR-CAS12I SYSTEMS AND USES THEREOF” (HUIDAGENE THERAPEUTICS (SINGAPORE) PTE. LTD., published 2025)

Molecular target: T1, xCas12i v5.3 (N243R,D892R)
T1 chain: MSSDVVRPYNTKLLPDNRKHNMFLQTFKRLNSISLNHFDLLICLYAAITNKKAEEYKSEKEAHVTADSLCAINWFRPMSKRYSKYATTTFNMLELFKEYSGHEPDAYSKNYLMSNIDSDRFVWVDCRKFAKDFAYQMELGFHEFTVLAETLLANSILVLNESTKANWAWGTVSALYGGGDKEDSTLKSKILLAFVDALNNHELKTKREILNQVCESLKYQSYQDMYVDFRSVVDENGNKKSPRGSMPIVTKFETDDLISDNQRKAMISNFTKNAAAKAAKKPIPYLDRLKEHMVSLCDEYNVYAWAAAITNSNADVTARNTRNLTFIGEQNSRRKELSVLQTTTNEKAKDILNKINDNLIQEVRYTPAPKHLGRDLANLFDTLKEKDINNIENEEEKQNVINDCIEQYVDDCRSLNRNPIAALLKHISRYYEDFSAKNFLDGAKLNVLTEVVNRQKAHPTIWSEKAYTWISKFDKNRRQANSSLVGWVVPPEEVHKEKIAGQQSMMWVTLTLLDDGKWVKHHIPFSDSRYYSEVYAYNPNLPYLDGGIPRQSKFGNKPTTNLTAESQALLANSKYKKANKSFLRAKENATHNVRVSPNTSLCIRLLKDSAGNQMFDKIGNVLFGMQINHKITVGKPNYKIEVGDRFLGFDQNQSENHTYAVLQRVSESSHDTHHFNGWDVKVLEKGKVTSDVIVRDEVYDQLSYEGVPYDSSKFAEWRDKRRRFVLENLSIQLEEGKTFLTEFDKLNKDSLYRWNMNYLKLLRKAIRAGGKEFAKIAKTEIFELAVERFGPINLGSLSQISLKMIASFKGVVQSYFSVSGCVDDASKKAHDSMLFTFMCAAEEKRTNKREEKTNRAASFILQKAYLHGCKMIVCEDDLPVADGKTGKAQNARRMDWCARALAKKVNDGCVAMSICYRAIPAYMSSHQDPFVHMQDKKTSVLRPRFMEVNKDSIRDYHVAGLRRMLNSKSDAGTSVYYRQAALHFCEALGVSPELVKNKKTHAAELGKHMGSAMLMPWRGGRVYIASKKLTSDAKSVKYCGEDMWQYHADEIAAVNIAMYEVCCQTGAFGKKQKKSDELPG
Assay: cell_activity; PAM TTTG; OT-1
Conditions: tags: NLS
Method: HEK293T cells were cultured in 24-well tissue culture plates according to standard methods for 12 hours, before the reporter and expression plasmids were co-transfected into the cells using standard polyethyleneimine (PEI) transfection. The transfected cells were then cultured at 37° C. under 5% CO₂ for 48 hours. Then the cultured cells were analyzed by flow cytometry for BFP, EGFP, and mCherry fluorescent signals. A “blank” control group was also set up, where only the reporter plasmid was transfected, and no expression plasmid was introduced.
A dual plasmid fluorescent reporter system for evaluation of off-target dsDNA cleavage activity (off-target reporter system; referring to “Off-Target Reporter” in FIG. 1B) was established, which was similar to the dual plasmid fluorescent reporter system in Example 6 for evaluation of (on-target) dsDNA cleavage activity, except that the insertion sequence of the EGxxxxFP coding sequence contains an TTR off-target protospacer sequence (one of SEQ ID NOs: 127-129) containing one or more mismatches (bold, underlined) with a TTR-targeting spacer sequence (SEQ ID NO: 130) in the gRNA, rather than containing a TTR on-target protospacer sequence (SEQ ID NO: 130; which is the same as SEQ ID NO: 107 in Example 5); DR-T1 sequence (SEQ ID NO: 451) was used. To save drafting, the on-target protospacer sequence/spacer sequence in Table 7 refer to both the protospacer sequence (a DNA sequence) and the corresponding spacer sequence (an RNA sequence) with any “T” in the sequence when referring to a protospacer sequences standing for “T” and when referring to a such spacer sequence standing for “U”, although the assigned SEQ ID NO: 130 in the sequence listing is annotated as DNA.

B1: TTR.2 crRNA ; TTR OT.1 (ssRNA ; dsDNA)
RNA: AUGACUCAGAAAUGUGUCCCCAGUUGACACUAGAAGGGAUAUACAAAGUGGA
DNA 1: TTTGTAGAAGGGATATAGAAAGTATC
DNA 2: GATACTTTCTATATCCCTTCTACAAA
For B1, the activity was 6.66%.
